Laboratory results: the supplement of paper PMC5998384

Key:
HeLa Kyoto [1] = assay: melting temperature (median over replicates), in situ; higher = more thermally stable
HeLa Kyoto [2] = assay: solubility change mitosis vs G1/S (difference of NP-40 vs SDS log2 ratios) (log2 ratio difference); higher = more soluble in mitosis
HeLa Kyoto [3] = assay: solubility in G1/S (NP-40 vs SDS abundance) (log2 ratio); higher = more soluble; conditions: cell cycle stage: G1/S
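Throughout, for melting temperature (median over replicates), in situ: HeLa Kyoto cells synchronized by double thymidine or nocodazole block, proteins quantified by TMT10plex mass spectrometry, three independent biological replicates.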
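Throughout, for solubility change mitosis vs G1/S (difference of NP-40 vs SDS log2 ratios): synchronized HeLa Kyoto cells (double thymidine block for G1/S, nocodazole release for mitosis), protein amounts in NP-40 versus SDS lysates quantified by mass spectrometry, three biological replicates.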
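Throughout, for solubility in G1/S (NP-40 vs SDS abundance): HeLa Kyoto cells arrested at G1/S by double thymidine block, proteins quantified by TMT10plex mass spectrometry in mild NP-40 versus SDS extracts, three biological replicates.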

Sequence | melting temperature (HeLa Kyoto [1]; cell cycle stage: mitosis) | solubility change mitosis (log2) (HeLa Kyoto [2]) | solubility in G1/S (log2) (HeLa Kyoto [3]) | melting temperature (HeLa Kyoto [1]; cell cycle stage: G1/S)
MNSTEFTEDVEEVLKSITVKVETEAEDAALDCSVNSRTSEKHSVDSVLTALQDSSKRKQLVSDGLLDSVPGVKRRRLIPEALLAGMRNRENSSPCQGNGEQAGRGRSLGNVWPGEEEPCNDATTPSYKKPLYGISHKIMEKKNPPSGDLLNVYELFEKANASNSPSSLRLLNEPQKRDCGSTGAGTDNDPNIYFLIQKMFYMLNTLTSNMSQLHSKVDLLSLEVSRIKKQVSPTEMVAKFQPPPEYQLTAAELKQIVDQSLSGGDLACRLLVQLFPELFSDVDFSRGCSACGFAAKRKLESLHLQLIRNYVEVYYPSVKDTAVWQAECLPQLNDFFSRFWAQREMEDSQPSGQVASFFEAEQVDPGHFLDNKDQEEALSLDRSSTIASDHVVDTQDLTEFLDEASSPGEFAVFLLHRLFPELFDHRKLGEQYSCYGDGGKQELDPQRLQIIRNYTEIYFPDMQEEEAWLQQCAQRINDELEGLGLDAGSEGDPPRDDCYDSSSLPDDISVVKVEDSFEGERPGRRSKKIWLVPIDFDKLEIPQPDFEVPGADCLLSKEQLRSIYESSLSIGNFASRLLVHLFPELFTHENLRKQYNCSGSLGKKQLDPSRIKLIRHYVQLLYPRAKNDRVWTLEFVGKLDERCRRRDTEQRRSYQQQRKVHVPGPECRDLTSYAINPERFREEFEGPPLPPERSSKDFCKIPLDELVVPSPDFPVPSPYLLSDKEVREIVQQSLSVGNFAARLLVRLFPELFTAENLRLQYNHSGACNKKQLDPTRLRLIRHYVEAVYPVEKMEEVWHYECIPSIDERCRRPNRKKCDILKKAKKVEK [BEND3] | 48.1 °C | 0.152 | -0.105 | 
MPGGCSRGPAAGDGRLRLARLALVLLGWVSSSSPTSSASSFSSSAPFLASAVSAQPPLPDQCPALCECSEAARTVKCVNRNLTEVPTDLPAYVRNLFLTGNQLAVLPAGAFARRPPLAELAALNLSGSRLDEVRAGAFEHLPSLRQLDLSHNPLADLSPFAFSGSNASVSAPSPLVELILNHIVPPEDERQNRSFEGMVVAALLAGRALQGLRRLELASNHFLYLPRDVLAQLPSLRHLDLSNNSLVSLTYVSFRNLTHLESLHLEDNALKVLHNGTLAELQGLPHIRVFLDNNPWVCDCHMADMVTWLKETEVVQGKDRLTCAYPEKMRNRVLLELNSADLDCDPILPPSLQTSYVFLGIVLALIGAIFLLVLYLNRKGIKKWMHNIRDACRDHMEGYHYRYEINADPRLTNLSSNSDV [TPBG] | 53.4 °C | 0.104 | 0.234 | 53.4 °C
MPLRKMKIPFLLLFFLWEAESHAASRPNIILVMADDLGIGDPGCYGNKTIRTPNIDRLASGGVKLTQHLAASPLCTPSRAAFMTGRYPVRSGMASWSRTGVFLFTASSGGLPTDEITFAKLLKDQGYSTALIGKWHLGMSCHSKTDFCHHPLHHGFNYFYGISLTNLRDCKPGEGSVFTTGFKRLVFLPLQIVGVTLLTLAALNCLGLLHVPLGVFFSLLFLAALILTLFLGFLHYFRPLNCFMMRNYEIIQQPMSYDNLTQRLTVEAAQFIQRNTETPFLLVLSYLHVHTALFSSKDFAGKSQHGVYGDAVEEMDWSVGQILNLLDELRLANDTLIYFTSDQGAHVEEVSSKGEIHGGSNGIYKGGKANNWEGGIRVPGILRWPRVIQAGQKIDEPTSNMDIFPTVAKLAGAPLPEDRIIDGRDLMPLLEGKSQRSDHEFLFHYCNAYLNAVRWHPQNSTSIWKAFFFTPNFNPVGSNGCFATHVCFCFGSYVTHHDPPLLFDISKDPRERNPLTPASEPRFYEILKVMQEAADRHTQTLPEVPDQFSWNNFLWKPWLQLCCPSTGLSCQCDREKQDKRLSR | 55.3 °C | -0.0688 | 0.0818 | 55.8 °C
MPVKKKRKSPGVAAAVAEDGGLKKCKISSYCRSQPPARLISGEEHFSSKKCLAWFYEYAGPDEVVGPEGMEKFCEDIGVEPENIIMLVLAWKLEAESMGFFTKEEWLKGMTSLQCDCTEKLQNKFDFLRSQLNDISSFKNIYRYAFDFARDKDQRSLDIDTAKSMLALLLGRTWPLFSVFYQYLEQSKYRVMNKDQWYNVLEFSRTVHADLSNYDEDGAWPVLLDEFVEWQKVRQTS [DCUN1D5] | 47.5 °C | -0.0762 | 0.214 | 
MRCCHICKLPGRVMGIRVLRLSLVVILVLLLVAGALTALLPSVKEDKMLMLRREIKSQGKSTMDSFTLIMQTYNRTDLLLKLLNHYQAVPNLHKVIVVWNNIGEKAPDELWNSLGPHPIPVIFKQQTANRMRNRLQVFPELETNAVLMVDDDTLISTPDLVFAFSVWQQFPDQIVGFVPRKHVSTSSGIYSYGSFEMQAPGSGNGDQYSMVLIGASFFNSKYLELFQRQPAAVHALIDDTQNCDDIAMNFIIAKHIGKTSGIFVKPVNMDNLEKETNSGYSGMWHRAEHALQRSYCINKLVNIYDSMPLRYSNIMISQFGFPYANYKRKI [EXTL2] | 58.5 °C | -0.23 | 0.132 | 56.7 °C
MRRAWILLTLGLVACVSAESRAELTSDKDMYLDNSSIEEASGVYPIDDDDYASASGSGADEDVESPELTTSRPLPKILLTSAAPKVETTTLNIQNKIPAQTKSPEETDKEKVHLSDSERKMDPAEEDTNVYTEKHSDSLFKRTEVLAAVIAGGVIGFLFAIFLILLLVYRMRKKDEGSYDLGERKPSSAAYQKAPTKEFYA [SDC2] | 59.2 °C | -0.902 | -0.422 | 55.6 °C
MSAARESHPHGVKRSASPDDDLGSSNWEAADLGNEERKQKFLRLMGAGKKEHTGRLVIGDHKSTSHFRTGEEDKKINEELESQYQQSMDSKLSGRYRRHCGLGFSEVEDHDGEGDVAGDDDDDDDDSPDPESPDDSESDSESEKEESAEELQAAEHPDEVEDPKNKKDAKSNYKMMFVKSSGS [SMAP] |  | 0.413 | 0.338 | 55 °C
MSDKPDMAEIEKFDKSKLKKTETQEKNPLPSKETIEQEKQAGES [TMSB4X] | 50.4 °C | 0.302 | -0.978 | 52.9 °C
MSDLEDDETPQLSAHALAALQEFYAEQKQQIEPGEDDKYNIGIIEENWQLSQFWYSQETALQLAQEAIAAVGEGGRIACVSAPSVYQKLRELCRENFSIYIFEYDKRFAMYGEEFIFYDYNNPLDLPERIAAHSFDIVIADPPYLSEECLRKTSETVKYLTRGKILLCTGAIMEEQAAELLGVKMCTFVPRHTRNLANEFRCYVNYDSGLDCGI [N6AMT2] | 50.6 °C | 0.0973 | -0.331 | 
MSGSVLFTAGERWRCFLTPSRSSLYWALHNFCCRKKSTTPKKITPNVTFCDENAKEPENALDKLFSSEQQASILHVLNTASTKELEAFRLLRGRRSINIVEHRENFGPFQNLESLMNVPLFKYKSTVQVCNSILCPKTGREKRKSPENRFLRKLLKPDIERERLKAVNSIISIVFGTRRIAWAHLDRKLTVLDWQQSDRWSLMRGIYSSSVYLEEISSIISKMPKADFYVLEKTGLSIQNSSLFPILLHFHIMEAMLYALLNKTFAQDGQHQVLSMNRNAVGKHFELMIGDSRTSGKELVKQFLFDSILKADPRVFFPSDKIVHYRQMFLSTELQRVEELYDSLLQAIAFYELAVFDSQP [TEFM] | 49.1 °C | 0.119 | -0.375 | 50.9 °C
MSLKMDNRDVAGKANRWFGVAPPKSGKMNMNILHQEELIAQKKREIEAKMEQKAKQNQVASPQPPHPGEITNAHNSSCISNKFANDGSFLQQFLKLQKAQTSTDAPTSAPSAPPSTPTPSAGKRSLLISRRTGLGLASLPGPVKSYSHAKQLPVAHRPSVFQSPDEDEEEDYEQWLEIKVSPPEGAETRKVIEKLARFVAEGGPELEKVAMEDYKDNPAFAFLHDKNSREFLYYRKKVAEIRKEAQKSQAASQKVSPPEDEEVKNLAEKLARFIADGGPEVETIALQNNRENQAFSFLYEPNSQGYKYYRQKLEEFRKAKASSTGSFTAPDPGLKRKSPPEALSGSLPPATTCPASSTPAPTIIPAPAAPGKPASAATVKRKRKSRWGPEEDKVELPPAELVQRDVDASPSPLSVQDLKGLGYEKGKPVGLVGVTELSDAQKKQLKEQQEMQQMYDMIMQHKRAMQDMQLLWEKAVQQHQHGYDSDEEVDSELGTWEHQLRRMEMDKTREWAEQLTKMGRGKHFIGDFLPPDELEKFMETFKALKEGREPDYSEYKEFKLTVENIGYQMLMKMGWKEGEGLGSEGQGIKNPVNKGTTTVDGAGFGIDRPAELSKEDDEYEAFRKRMMLAYRFRPNPLNNPRRPYY [SUGP1] | 50.8 °C | 0.255 | 0.221 | 47.3 °C
MSLVIRNLQRVIPIRRAPLRSKIEIVRRILGVQKFDLGIICVDNKNIQHINRIYRDRNVPTDVLSFPFHEHLKAGEFPQPDFPDDYNLGDIFLGVEYIFHQCKENEDYNDVLTVTATHGLCHLLGFTHGTEAEWQQMFQKEKAVLDELGRRTGTRLQPLTRGLFGGS [YBEY] | 49.7 °C | 0.0965 | -0.21 | 45.4 °C
MSQAEFEKAAEEVRHLKTKPSDEEMLFIYGHYKQATVGDINTERPGMLDFTGKAKWDAWNELKGTSKEDAMKAYINKVEELKKKYGI [DBI] | 53.8 °C | 0.148 | -0.236 | 53.7 °C
MSSKKAKTKTTKKRPQRATSNVFAMFDQSQIQEFKEAFNMIDQNRDGFIDKEDLHDMLASLGKNPTDAYLDAMMNEAPGPINFTMFLTMFGEKLNGTDPEDVIRNAFACFDEEATGTIQEDYLRELLTTMGDRFTDEEVDELYREAPIDKKGNFNYIEFTRILKHGAKDKDD [MYL12B] | 52.7 °C | 0.538 | 0.24 | 54 °C
MSSPMPDCTSKCRSLKHALDVLSVVTKGSENQIKAFLSSHCYNAATIKDVFGRNALHLVSSCGKKGVLDWLIQKGVDLLVKDKESGWTALHRSIFYGHIDCVWSLLKHGVSLYIQDKEGLSALDLVMKDRPTHVVFKNTDPTDVYTWGDNTNFTLGHGSQNSKHHPELVDLFSRSGIYIKQVVLCKFHSVFLSQKGQVYTCGHGPGGRLGHGDEQTCLVPRLVEGLNGHNCSQVAAAKDHTVVLTEDGCVYTFGLNIFHQLGIIPPPSSCNVPRQIQAKYLKGRTIIGVAAGRFHTVLWTREAVYTMGLNGGQLGCLLDPNGEKCVTAPRQVSALHHKDIALSLVAASDGATVCVTTRGDIYLLADYQCKKMASKQLNLKKVLVSGGHMEYKVDPEHLKENGGQKICILAMDGAGRVFCWRSVNSSLKQCRWAYPRQVFISDIALNRNEILFVTQDGEGFRGRWFEEKRKSSEKKEILSNLHNSSSDVSYVSDINSVYERIRLEKLTFAHRAVSVSTDPSGCNFAILQSDPKTSLYEIPAVSSSSFFEEFGKLLREADEMDSIHDVTFQVGNRLFPAHKYILAVHSDFFQKLFLSDGNTSEFTDIYQKDEDSAGCHLFVVEKVHPDMFEYLLQFIYTDTCDFLTHGFKPRIHLNKNPEEYQGTLNSHLNKVNFHEDDNQKSAFEVYKSNQAQTVSERQKSKPKSCKKGKNIREDDPVRMLQTVAKKFDFSNLSSRLDGVRFENEKINVIAKNTGNKLKLSQKKCSFLCDVTMKSVDGKEFPCHKCVLCARLEYFHSMLSSSWIEASSCAALEMPIHSDILKVILDYLYTDEAVVIKESQNVDFICSVLVVADQLLITRLKEICEVALTEKLTLKNAAMLLEFAAMYSAKQLKLSCLQFIGLNMAALLEARSLDVLSDGVLKDLSEFYRKMIPAMDRRVITPYQDGPDISYLEVEDGDIFLKEEINMEQNHSETMFKKAKTKAKKKPRKRSDSSGGYNLSDIIQSPSSTGLLKSGKTNSVESLPELLTSDSEGSYAGVGSPRDLQSPDFTTGFHSDKIEAKVKPYVNGTSPVYSREDLKPWEKSPILKISAPQPIPSNRIDTTSSASWVAGSFSPVSPPVVDLRTIMEIEESRQKCGATPKSHLGKTVSHGVKLSQKQRKMIALTTKENNSGMNSMETVLFTPSKAPKPVNAWASSLHSVSSKSFRDFLLEEKKSVTSHSSGDHVKKVSFKGIENSQAPKIVRCSTHGTPGPEGNHISDLPLLDSPNPWLSSSVTAPSMVAPVTFASIVEEELQQEAALIRSREKPLALIQIEEHAIQDLLVFYEAFGNPEEFVIVERTPQGPLAVPMWNKHGC [IBTK] | 50.8 °C | 0.351 | -0.61 | 52.7 °C
